Source: IntAct's records for PubMed 25170080

B1: Protein Nef (Human immunodeficiency virus type 1 group M subtype B (isolate HXB2) (HIV-1)), P04601 (parent)
chain: MGGKWSKSSVIGWPTVRERMRRAEPAADRVGAASRDLEKHGAITSSNTAATNAACAWLEAQEEEEVGFPVTPQVPLRPMTYKAAVDLSHFLKEKGGLEGLIHSQRRQDILDLWIYHTQGYFPDWQNYTPGPGVRYPLTFGWCYKLVPVEPDKIEEANKGENTSLLHPVSLHGMDDPEREVLEWRFDSRLAFHHVARELHPEYFKNC
partner: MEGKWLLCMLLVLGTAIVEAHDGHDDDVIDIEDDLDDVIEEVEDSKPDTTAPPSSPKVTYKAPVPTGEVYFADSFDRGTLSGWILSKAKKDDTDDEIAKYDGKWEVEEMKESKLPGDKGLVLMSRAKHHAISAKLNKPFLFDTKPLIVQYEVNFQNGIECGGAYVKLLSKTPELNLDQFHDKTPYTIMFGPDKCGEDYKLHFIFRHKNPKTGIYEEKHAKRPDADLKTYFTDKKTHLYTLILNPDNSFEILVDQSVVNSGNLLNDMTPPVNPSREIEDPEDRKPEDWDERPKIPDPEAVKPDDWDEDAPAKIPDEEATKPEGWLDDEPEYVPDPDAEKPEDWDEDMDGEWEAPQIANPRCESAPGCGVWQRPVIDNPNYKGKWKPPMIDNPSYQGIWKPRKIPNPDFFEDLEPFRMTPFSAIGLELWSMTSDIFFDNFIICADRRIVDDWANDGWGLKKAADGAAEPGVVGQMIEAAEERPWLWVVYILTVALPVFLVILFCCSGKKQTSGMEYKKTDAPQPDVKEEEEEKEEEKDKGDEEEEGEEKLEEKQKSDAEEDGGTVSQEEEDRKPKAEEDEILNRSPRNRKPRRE

Variants of: B1
Conditions: with calx_human CANX

| Variant | effect of a mutation on the interaction |
| --- | --- |
| G2A | disrupting interaction strength |
